From patent publication US12139520B2 (priority 2020, dated 2024)
Bridge positions count the residues as written; N and C are the ends. Square brackets hold non-standard residues; d marks the D form. Ends that are not written are not given here. Hyp = O=C(O)[C@@H]1C[C@@H](O)CN1; Cit = NC(=O)NCCC[C@H](N)C(=O)O

Key:
hAMY3R = target: T1, hAMY3R (human, UniProt P30988); test: cell-based or functional assay
T1 sequence 1: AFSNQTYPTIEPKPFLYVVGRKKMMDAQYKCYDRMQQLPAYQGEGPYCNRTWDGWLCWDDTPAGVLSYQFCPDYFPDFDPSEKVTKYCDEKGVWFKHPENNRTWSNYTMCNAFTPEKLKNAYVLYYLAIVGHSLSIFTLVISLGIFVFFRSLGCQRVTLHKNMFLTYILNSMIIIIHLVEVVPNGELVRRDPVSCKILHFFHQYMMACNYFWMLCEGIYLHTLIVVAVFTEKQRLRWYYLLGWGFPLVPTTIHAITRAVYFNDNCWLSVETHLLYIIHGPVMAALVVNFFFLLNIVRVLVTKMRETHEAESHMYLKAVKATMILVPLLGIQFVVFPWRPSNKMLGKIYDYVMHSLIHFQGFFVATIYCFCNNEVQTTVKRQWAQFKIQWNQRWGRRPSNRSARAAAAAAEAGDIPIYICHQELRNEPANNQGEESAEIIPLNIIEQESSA
T1 sequence 2: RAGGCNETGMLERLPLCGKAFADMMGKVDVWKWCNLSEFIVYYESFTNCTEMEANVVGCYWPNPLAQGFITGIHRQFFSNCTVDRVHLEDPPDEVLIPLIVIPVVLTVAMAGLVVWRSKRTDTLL

hAM1R = hAM1R (human, UniProt Q16602); test: cell-based or functional assay

Row | Binder | hAMY3R EC50 (cAMP) (hAMY3R) [nM] | hAM1R EC50 (cAMP) (hAM1R) [nM]
1 | GCRTGTCTVQ[Cit]LAHQIYQFTDKDKDNVAPRSKVGPNG[Hyp]-NH2 (disulfide 2-7 (inferred); ends not checked) [SEQ ID NO: 290] | 0.047 | > 5000
2 | GCRFGTCTVQ[Cit]LAHQIYQFTDKDKDNVAPRSNISPQG[Hyp]-NH2 (disulfide 2-7 (inferred); ends not checked) [SEQ ID NO: 300] | 0.076 | > 5000
3 | KCNTATCTVQRLAHQIYQFTDKDKDNVAPTNVGSNG[Hyp]-NH2 (disulfide 2-7 (inferred); ends not checked) [SEQ ID NO: 31] | 0.008 | > 5000
4 | GCRFGTCTVQ[Cit]LAHQIYQFTDKDKDNVAPRTKVSPQG[Hyp]-NH2 (disulfide 2-7 (inferred); ends not checked) [SEQ ID NO: 287] | 0.055 | > 5000
5 | GCRTGTCTVQ[Cit]LAHQIYQFTDKDKDNVAPRSKIGPNG[Hyp]-NH2 (disulfide 2-7 (inferred); ends not checked) [SEQ ID NO: 299] | 0.11 | > 5000
6 | GCRIGTCTVQ[Cit]LAHQIYQFTDKFKDNVAPRSKISPQT[Hyp]-NH2 (disulfide 2-7 (inferred); ends not checked) [SEQ ID NO: 295] | 0.194 | > 5000
7 | RCNASTCTVNWLADQITQFSNKDKAQVSPPTEVGPNS[Hyp]-NH2 (disulfide 2-7 (inferred); ends not checked) [SEQ ID NO: 307] | 0.01 | > 5000
8 | GCRTGTCTVQ[Cit]LAHQIYQFTDKDKDNVAPRTKIGPQG[Hyp]-NH2 (disulfide 2-7 (inferred); ends not checked) [SEQ ID NO: 301] | 0.138 | > 5000
9 | GCRFGTCTVQ[Cit]LAHQIYQFTDKDKDNVAPRSNVGPQG[Hyp]-NH2 (disulfide 2-7 (inferred); ends not checked) [SEQ ID NO: 289] | 0.005 | 3500
10 | GCRTGTCTVQ[Cit]LAHQIYQFTDKDKDNVAPRSNVSPNG[Hyp]-NH2 (disulfide 2-7 (inferred); ends not checked) [SEQ ID NO: 304] | 0.139 | > 5000
11 | GCRTGTCTVQ[Cit]LAHQIYQFTDKDKDNVAPRTKVGPQGY-NH2 (disulfide 2-7 (inferred); ends not checked) [SEQ ID NO: 298] | 0.057 | > 5000
12 | GCRTGTCTVQ[Cit]LAHQIYQFTDKDKDNVAPRSKVGPQGY-NH2 (disulfide 2-7 (inferred); ends not checked) [SEQ ID NO: 285] | 0.157 | > 5000
13 | GCRFGTCTVQ[Cit]LAHQIYQFTDKDKDNVAPRSKVSPQG[Hyp]-NH2 (disulfide 2-7 (inferred); ends not checked) [SEQ ID NO: 305] | 0.085 | > 5000
14 | KCNTATCTVQWLAHQIAQFTDKDKDNVAPPTNVGSNG[Hyp]-NH2 (disulfide 2-7 (inferred); ends not checked) [SEQ ID NO: 309] | 0.025 | > 5000
15 | GCRTGTCTVQ[Cit]LAHQIYQFTDKDKDNVAPRTNVSPNG[Hyp]-NH2 (disulfide 2-7 (inferred); ends not checked) [SEQ ID NO: 302] | 0.071 | 4330
16 | GCRFGTCTVQ[Cit]LAHQIYQFTDKDKDNVAPRTKISPQG[Hyp]-NH2 (disulfide 2-7 (inferred); ends not checked) [SEQ ID NO: 294] | 0.045 | > 5000
17 | GCRFGTCTVQ[Cit]LAHQIYQFTDKDKDNVAPRSNVSPQG[Hyp]-NH2 (disulfide 2-7 (inferred); ends not checked) [SEQ ID NO: 293] | 0.063 | > 5000
18 | GCRWGTCTVQ[Cit]LAHQIYQFTDKDKDNVAPRSKISPQT[Hyp]-NH2 (disulfide 2-7 (inferred); ends not checked) [SEQ ID NO: 296] | 0.392 | > 5000
19 | KCNTSTCTVAWLADQITQFSNKDKAQVSPPTEVGPNS[Hyp]-NH2 (disulfide 2-7 (inferred); ends not checked) [SEQ ID NO: 306] | 0.003 | > 5000
20 | GCRTGTCTVQ[Cit]LAHQIYQFTDKDKDNVAPRSNIGPNG[Hyp]-NH2 (disulfide 2-7 (inferred); ends not checked) [SEQ ID NO: 297] | 0.026 | > 5000
21 | GCRTGTCTVQ[Cit]LAHQIYQFTDKDKDNVAPRSNIGPQG[Hyp]-NH2 (disulfide 2-7 (inferred); ends not checked) [SEQ ID NO: 303] | 0.103 | > 5000
22 | GCRFGTCTVQ[Cit]LAHQIYQFTDKDKDNVAPRTNISPQG[Hyp]-NH2 (disulfide 2-7 (inferred); ends not checked) [SEQ ID NO: 291] | 0.064 | > 5000
23 | GCRFGTCTVQ[Cit]LAHQIYQFTDKDKDNVAPRSKIGPQG[Hyp]-NH2 (disulfide 2-7 (inferred); ends not checked) [SEQ ID NO: 284] | 0.028 | 591
24 | GCRFGTCTVQ[Cit]LAHQIYQFTDKDKDNVAPRSNVSPQGY-NH2 (disulfide 2-7 (inferred); ends not checked) [SEQ ID NO: 286] | 0.025 | 139
25 | KCNTATCTVQWLAHAIYQFTDKDKDNVAPPTNVGSNG[Hyp]-NH2 (disulfide 2-7 (inferred); ends not checked) [SEQ ID NO: 308] | 0.014 | > 5000
26 | KCNTATCTVQRLAHQIYQFTKDKDNVAPPTNVGSNG[Hyp]-NH2 (disulfide 2-7 (inferred); not fully specified; ends not checked) [SEQ ID NO: 29] | 0.008 | > 5000
27 | GCRFGTCTVQ[Cit]LAHQIYQFTDKDKDNVAPRTKVSPNG[Hyp]-NH2 (disulfide 2-7 (inferred); ends not checked) [SEQ ID NO: 288] | 0.03 | > 5000
28 | KCNTATCTVQRLAHQIYQFTDKDKDNVPPTNVGSNG[Hyp]-NH2 (disulfide 2-7 (inferred); not fully specified; ends not checked) [SEQ ID NO: 30] | 0.008 | > 5000
29 | GCRTGTCTVQ[Cit]LAHQIYQFTDKDKDNVAPRTKVGPQG[Hyp]-NH2 (disulfide 2-7 (inferred); ends not checked) [SEQ ID NO: 292] | 0.07 | > 5000
